Values quoted from earlier work in paper PMC7878404.

Biological target: Bex1 50-75 (UniProt Q9R224)
Sequence of UniProt Q9R224 (Q9R224 50-75): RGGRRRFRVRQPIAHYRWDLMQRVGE

Kd: 150 µM
Substance: OMP (from UniProt P08523)
